The values below come from patent publication US20180017576A1 (WESTFAELISCHE WILHELMS UNIVERSITAET MUENSTER, published 2018).

The labels stand for the following.
B1: recombinant human S100A8 protein (other)
chain: LTELEKALNSIIDVYHKYSLIKGNFHAVYRDDLKKLLETECPQYIRKKGADVWFKELDINTDGAVNFQEFLILVIKMGVAAHKKSHEESHKE
notes: also called recS100A8; MRP8

The target of series [1] is T1, recombinant human S100A9 protein, wild type (human, UniProt P06702 2-114).
T1 construct: also called recS100A9; S100A9 wt
T1 sequence: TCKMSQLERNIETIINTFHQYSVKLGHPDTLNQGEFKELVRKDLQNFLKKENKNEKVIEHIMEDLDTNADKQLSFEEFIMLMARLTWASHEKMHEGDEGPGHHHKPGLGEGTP
The experiment in a line: MALDI-MS, native solvent conditions, no calcium.

Series [2] deals with the molecule itself. The experiment in a line: glycerol density gradient centrifugation, 100 uM Ca2+. Here is the method:
(§1) FIG. 5: Density gradient centrifugation. wt and mutant recS100A8/S100A9 complexes were loaded on a glycerol gradient in the presence of either 1 mM EGTA or 100 μM Ca²⁺. After centrifugation, successive fractions of the gradients were analyzed by SDS-PAGE. […] Addition of calcium induced a marked shift for recS100A8/S100A9 wt to higher glycerol densities, whereas for the mutant complexes recS100A8/S100A9(N69A) and recS100A8/S100A9(E78A) no shift was observed.

Series [3] deals with the molecule itself. In words: MALDI-MS, native solvent conditions, with calcium. From the text:
FIG. 2: MALDI mass spectra in the absence and presence of calcium under native solvent conditions. (a) MALDI mass spectra of recS100A8/S100A9 wt complexes in the absence (left) and presence (right) of calcium using 2,6-dihydroxy-acetophenone as matrix. The mass spectra between m/z 20,000 and 100,000 together with an inset between m/z 46,000 and 50,000 are shown. T⁺, singly charged; T²⁺, doubly charged; T³⁺, triply charged tetramer. (b) MALDI mass spectra of recS100A8/S100A9(N69A) mutant complexes in the absence (left) and presence (right) of calcium.
The oligomerization properties of the recS100A8/S100A9 mutant complexes can be determined by MALDI-MS. As shown exemplarily for the N69A mutant in FIG. 2(b), all mutant S100A9 proteins display signals for singly charged heterodimers in the absence of calcium. In contrast to the results obtained with the recS100A8/S100A9 wt proteins no heterotetramers can be observed for the mutant complexes in the presence of calcium (FIG. 2). The base peaks under these conditions exclusively represent S100A8/S100A9(N69A), S100A8/S100A9(E78A) and S100A8/S100A9(N69A+E78A) heterodimers. All MALDI-MS experiments presented here were also confirmed by ESI-MS measurements (see FIG. 3).

The target of series [4] is B1. The experiment in a line: glycerol density gradient centrifugation, 1 mM EGTA. As for the experimental part: as §1
Series [5] deals with B1. The experiment in a line: ESI-MS, native solvent conditions.

Consider B1, for which, in series [1], the binding result was “binds”.

B2: recS100A8/S100A9 wt heterodimer (other)
chain 1: LTELEKALNSIIDVYHKYSLIKGNFHAVYRDDLKKLLETECPQYIRKKGADVWFKELDINTDGAVNFQEFLILVIKMGVAAHKKSHEESHKE
chain 2: TCKMSQLERNIETIINTFHQYSVKLGHPDTLNQGEFKELVRKDLQNFLKKENKNEKVIEHIMEDLDTNADKQLSFEEFIMLMARLTWASHEKMHEGDEGPGHHHKPGLGEGTP
notes: Heterodimer of one S100A8 and one S100A9 chain; Two such heterodimers associate to the (S100A8/S100A9)2 tetramer in the presence of calcium; also called recS100A8/S100A9 wild-type complex; wt S100A8/S100A9
As for B2, in series [2], the binding result was “binds”.

B3: recS100A8/S100A9(E78A) heterodimer (other)
chain 1: LTELEKALNSIIDVYHKYSLIKGNFHAVYRDDLKKLLETECPQYIRKKGADVWFKELDINTDGAVNFQEFLILVIKMGVAAHKKSHEESHKE
chain 2: TCKMSQLERNIETIINTFHQYSVKLGHPDTLNQGEFKELVRKDLQNFLKKENKNEKVIEHIMEDLDTNADKQLSFEAFIMLMARLTWASHEKMHEGDEGPGHHHKPGLGEGTP
notes: Heterodimer of S100A8 and mutated S100A9; also called recS100A8/S100A9(E78A) mutant complex
As to B3, the binding result in series [3] is given as “no binding”.

B4: recS100A8/S100A9(N69A+E78A) heterodimer (other)
chain 1: LTELEKALNSIIDVYHKYSLIKGNFHAVYRDDLKKLLETECPQYIRKKGADVWFKELDINTDGAVNFQEFLILVIKMGVAAHKKSHEESHKE
chain 2: TCKMSQLERNIETIINTFHQYSVKLGHPDTLNQGEFKELVRKDLQNFLKKENKNEKVIEHIMEDLDTAADKQLSFEAFIMLMARLTWASHEKMHEGDEGPGHHHKPGLGEGTP
notes: Heterodimer of S100A8 and doubly mutated S100A9
As for B4, the binding result in series [3] is “no binding”.

B5: recS100A8/S100A9(N69A) heterodimer (other)
chain 1: LTELEKALNSIIDVYHKYSLIKGNFHAVYRDDLKKLLETECPQYIRKKGADVWFKELDINTDGAVNFQEFLILVIKMGVAAHKKSHEESHKE
chain 2: TCKMSQLERNIETIINTFHQYSVKLGHPDTLNQGEFKELVRKDLQNFLKKENKNEKVIEHIMEDLDTAADKQLSFEEFIMLMARLTWASHEKMHEGDEGPGHHHKPGLGEGTP
notes: Heterodimer of S100A8 and mutated S100A9; also called recS100A8/S100A9(N69A) mutant complex
For B5, in series [3], the binding result is “no binding”.

B6: recombinant human S100A9(N69A) (other)
chain: TCKMSQLERNIETIINTFHQYSVKLGHPDTLNQGEFKELVRKDLQNFLKKENKNEKVIEHIMEDLDTAADKQLSFEEFIMLMARLTWASHEKMHEGDEGPGHHHKPGLGEGTP
notes: also called N69A mutant
Regarding B6, in series [4], the binding result is “binds”.

B7: recombinant human S100A9(N69A+E78A) (other)
chain: TCKMSQLERNIETIINTFHQYSVKLGHPDTLNQGEFKELVRKDLQNFLKKENKNEKVIEHIMEDLDTAADKQLSFEAFIMLMARLTWASHEKMHEGDEGPGHHHKPGLGEGTP
notes: also called double mutant
In the case of B7, the binding result in series [5] is on record as “binds”.

B8: recombinant human S100A9(E78A) (other)
chain: TCKMSQLERNIETIINTFHQYSVKLGHPDTLNQGEFKELVRKDLQNFLKKENKNEKVIEHIMEDLDTNADKQLSFEAFIMLMARLTWASHEKMHEGDEGPGHHHKPGLGEGTP
notes: also called E78A mutant
B8: the binding result in series [4] was “binds”.
